Assay results reported in patent publication US20220306751A1 (MYTHIC THERAPEUTICS, published 2022).
Numbering of substitutions follows the chain as printed. Values belong to the binder of their own block, whether it stands above or below them.

Molecular target: T1, CD123 Protein, His Tag, Acro Biosciences Cat. No. ILA-H52H6 (Homo sapiens (Human), UniProt P26951 19-305)
T1 construct: Bought protein; not shown: His tag
T1 sequence: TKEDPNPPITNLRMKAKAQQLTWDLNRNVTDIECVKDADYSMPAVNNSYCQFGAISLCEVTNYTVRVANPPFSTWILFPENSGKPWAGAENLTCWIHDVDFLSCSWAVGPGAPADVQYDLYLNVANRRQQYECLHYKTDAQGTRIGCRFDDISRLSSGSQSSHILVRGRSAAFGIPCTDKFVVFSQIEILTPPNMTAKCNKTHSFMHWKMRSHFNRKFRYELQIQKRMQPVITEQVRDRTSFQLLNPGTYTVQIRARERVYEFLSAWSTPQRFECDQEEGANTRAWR
Assay: BLI, IgG on anti-human Fc sensor, 50 nM CD123, pH 7.4 and pH 5.4
From the text: We selected IMGN632 (Heavy chain SEQ ID NO: 1, Light chain SEQ ID NO: 2) as a CD123-binding monoclonal antibody for pH engineering via histidine scanning. Briefly, CDRs in the heavy chain were identified using the methods described by Kabat et al (Kabat et al. (1992) Sequences of Proteins of Immunological Interest, DIANE publishing) and IMGT (Lefranc M P (1999) “The IMGT unique numbering for Immunoglobulins, T cell receptors and Ig-like domains” The Immunologist 7, 132-136), and for each CDR, residues falling under either or both Kabat and IMGT CDR definitions were called as CDR residues. To generate pH-dependent sequence variants, individual amino acid residues within the heavy chain CDRs were systematically substituted with a histidine, one at a time (MYT1252-MYT1292). In cases where the starting CDR residue was a histidine, it was mutated to an alanine. Antibody variants with only one histidine or alanine mutation in a heavy chain CDR were generated by co-transfection of Expi293 cells with a) one heavy chain sequence variant, and b) the corresponding starting ABPC light chain using methods known to the art. After allowing for four days of protein expression, cell culture supernatants were collected, quantified by SDS-PAGE analysis (FIG. 1), and the pH dependence of the variant was evaluated using biolayer interferometry (BLI) on an Octet RED 384 instrument. For constructs MYT1252, MYT1254-MYT1287, and MYT1289-1292, 104, of cell culture supernatant was diluted into 1904, of 1× PBST pH 7.4. For MYT1253 and MYT1288 254, and 504, of cell culture supernatant was diluted into 1754, and 1504, respectively. […] The resulting diluted supernatants were then captured on an anti-human Fc sensor (Forte Bio). A baseline was established using 1× PBST (50 mM Potassium Phosphate Buffer+150 mM NaCl+0.05% Tween 20) pH 7.4, and the sensor was associated with 50 nM of CD123 (CD123 Protein, His Tag, Acro Biosciences Cat. No. ILA-H52H6, Lot No. 1741d-89CF1-KB) in 1×PBST pH 7.4 for 120 sec to generate an association curve. In the dissociation phase, the antibody-antigen complex on the sensor was exposed to 1× PBST pH 7.4 for 300-600 sec. Baseline, association, and dissociation were repeated using 1×PBST pH 5.4 throughout in a separate condition.

- binding result: binds
B1: MYT1288 (antibody, V domains shown)
VH: QVQLVQSGAEVKKPGASVKVSCKASGYIFTSSIMHWVRQAPGQGLEWIGYIKPYNDGTKYNEKFKGRATLTSDRSTSTAYMELSSLRSEDTAVYYCAREGGNDYYHTMDYWGQGTLVTVSS
VL: DIQMTQSPSSLSASVGDRVTITCRASQDINSYLSWFQQKPGKAPKTLIYRVNRLVDGVPSRFSGSGSGNDYTLTISSLQPEDFATYYCLQYDAFPYTFGQGTKVEIK
notes: IgG

- binding result: binds
B2: MYT1291 (antibody, V domains shown)
VH: B1 VH with H106D, D109H
VL: B1 VL
notes: IgG

- binding result: binds
B3: MYT1290 (antibody, V domains shown)
VH: B1 VH with H106D, M108H
VL: B1 VL
notes: IgG

- binding result: binds
B4: MYT1292 (antibody, V domains shown)
VH: B1 VH with H106D, Y110H
VL: B1 VL
notes: IgG

- binding result: binds
B5: MYT2760 (antibody, V domains shown)
VH: B1 VH with Y105H, H106D, T107H
VL: B1 VL
notes: IgG

- binding result: binds
B6: MYT2762 (antibody, V domains shown)
VH: B1 VH with H106D, T107H, D109H
VL: B1 VL
notes: IgG

- binding result: binds
B7: MYT2763 (antibody, V domains shown)
VH: B1 VH with Y27H, H35A, Y105H, H106D
VL: B1 VL
notes: IgG

- binding result: binds
B8: MYT2761 (antibody, V domains shown)
VH: B1 VH with Y105H, H106D, D109H
VL: B1 VL
notes: IgG

- binding result: binds
B9: MYT2757 (antibody, V domains shown)
VH: B1 VH with H35A, Y105H, H106D
VL: B1 VL
notes: IgG

- binding result: binds
B10: MYT2764 (antibody, V domains shown)
VH: B1 VH with Y27H, H35A, H106D, T107H
VL: B1 VL
notes: IgG

- binding result: binds
B11: MYT2756 (antibody, V domains shown)
VH: B1 VH with Y27H, H106D, D109H
VL: B1 VL
notes: IgG

- binding result: binds
B12: MYT2754 (antibody, V domains shown)
VH: B1 VH with Y27H, Y105H, H106D
VL: B1 VL
notes: IgG

- binding result: binds
B13: MYT2759 (antibody, V domains shown)
VH: B1 VH with H35A, H106D, D109H
VL: B1 VL
notes: IgG

- binding result: binds
B14: MYT2753 (antibody, V domains shown)
VH: B1 VH with Y27H, H35A, H106D
VL: B1 VL
notes: IgG

- binding result: binds
B15: MYT2773 (antibody, V domains shown)
VH: B1 VH with H106D
VL: B1 VL with R24H
notes: IgG

- binding result: binds
B16: MYT2755 (antibody, V domains shown)
VH: B1 VH with Y27H, H106D, T107H
VL: B1 VL
notes: IgG

- binding result: binds
B17: MYT2774 (antibody, V domains shown)
VH: B1 VH with H106D
VL: B1 VL with A25H
notes: IgG

- binding result: binds
B18: MYT1289 (antibody, V domains shown)
VH: B1 VH with H106D, T107H
VL: B1 VL
notes: IgG
